According to patent publication US5864028, “Degradation resistant mRNA derivatives linked to TNF-α ribozymes” (Gene Shears Pty. Limited):

Assays:
[1] = molecular target: T1, GAPDH (commercial, rabbit muscle) (Oryctolagus cuniculus, UniProt P46406 P46406:1-333); experiment: ribozyme cleavage rate enhancement; none with LD; settings: tags: commercial; chain copies: 4 (stated homotetramer); hammerhead ribozyme with 5'-3' end duplex
Experimental: Autoradiogram of denaturing gels of multiple turnover reactions in the absence FIG. 32(A) or in the presence of GAPDH FIG. 32(B) as well as in the presence of LD as unspecific protein FIG. 32(C). 5 nM of the ribozyme and 50 nM of […] 15-mer substrate were incubated in a reaction mixture containing 50 mM Tris-HCl pH 7.5 and 5 mM MgCl_2 at 37° C. in the absence or presence of proteins (150 ng/μl) and then processed as described below. FIG. 32(D) Quantification of the data shown in A, B and C by Phospho-Imager. Appropriate time (min) is indicated on the top of each lane. FIG. 32(E) Control experiments. A Phospho-Imager printout is shown following separation of the products by 15% PAGE gel. No cleavage activity was seen upon addition of GAPDH in absence of Mg^++ (lane 4). The cleavage rate of the ribozyme (lane 2) is enhanced by the addition of GAPDH (Lane 3). This cleavage enhancement is shut down by phenol treatment of the GAPDH preparation prior to addition (lane 5). Arrows indicated the cleavage products.
Standard cleavage reactions were carried out at 37° C. in buffer containing 50 mM Tris-HCl, pH 7.5 and 10 mM MgCl_2. Multiple turnover cleavage reactions in the presence or absence of GAPDH were performed with 5 mM […], unless otherwise indicated. Ribozyme and substrate were heated separately at 90° C. for 1 min and cooled at 4° C. […]

[2] = molecular target: GAPDH (37 kDa ribozyme-binding protein purified from PBMN cells) (Homo sapiens, UniProt P04406 P04406:2-335); experiment: ribozyme cleavage rate enhancement; 100 ng/ul GAPDH, 2 mM MgCl2, 37 C; settings: tags: none; Mono Q purified from PBMN cytoplasmic extract; chain copies: 4 (stated homotetramer); label: 32P internal; hammerhead ribozyme
Experimental: FIG. 29(A) Ribozymes (2 nM) and the [γ^32P]-labelled 20-mer target RNA (50 nM) were incubated at 37° C. in the presence or absence of different concentrations of purified protein (Filled rectangle) or lactate dehydrogenase (open rectangle) as unspecific protein in a reaction buffer containing 50 mM Tris-HCl pH 7.5 and 1 mM MgCl_2. […] The radioactivity contained in each 5' end was quantified by Phospho-Imager. […] Appropriate time (min) is indicated on the top of each lane. The radioactivity containing in each 5' end-labelled product was quantified and expressed as percentage of radioactivity present in the substrate FIG. 29(D).
Standard cleavage reactions were carried out at 37° C. in buffer containing 50 mM Tris-HCl, pH 7.5 and 10 mM MgCl_2. Multiple turnover cleavage reactions in the presence or absence of GAPDH were performed with 5 mM […], unless otherwise indicated. Ribozyme and substrate were heated separately at 90° C. for 1 min and cooled at 4° C. After this step both RNAs were mixed in cleavage buffer containing 0.2 U RNasin and then divided into 3 samples. Following addition of GAPDH or lactate dehydrogenase (LD) as an unspecific protein to one of the samples, reactions were initiated by the addition of MgCl_2. At specified times, 10 μl aliquots were removed and the reaction was stopped by the addition of 20 mM EDTA and phenol.

[3] = molecular target: T1, GAPDH (commercial, rabbit muscle); experiment: cleavage enhancement similar to IL-2-Rz2; settings: tags: commercial; chain copies: 4 (stated homotetramer); hammerhead ribozyme with 5'-3' end duplex

T1 sequence (P46406 whole entry, one chain of several): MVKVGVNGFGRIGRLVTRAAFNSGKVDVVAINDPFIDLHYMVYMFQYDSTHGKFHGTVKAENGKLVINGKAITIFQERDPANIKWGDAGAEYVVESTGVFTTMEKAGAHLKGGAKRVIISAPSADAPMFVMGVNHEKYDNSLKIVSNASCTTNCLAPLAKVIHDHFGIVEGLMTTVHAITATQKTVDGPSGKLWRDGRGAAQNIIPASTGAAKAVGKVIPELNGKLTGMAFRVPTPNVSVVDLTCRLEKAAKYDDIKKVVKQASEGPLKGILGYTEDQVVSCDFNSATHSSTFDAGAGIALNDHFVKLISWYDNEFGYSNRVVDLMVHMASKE
Chain of GAPDH (37 kDa ribozyme-binding protein purified from PBMN cells) (P04406 2-335, one chain of several): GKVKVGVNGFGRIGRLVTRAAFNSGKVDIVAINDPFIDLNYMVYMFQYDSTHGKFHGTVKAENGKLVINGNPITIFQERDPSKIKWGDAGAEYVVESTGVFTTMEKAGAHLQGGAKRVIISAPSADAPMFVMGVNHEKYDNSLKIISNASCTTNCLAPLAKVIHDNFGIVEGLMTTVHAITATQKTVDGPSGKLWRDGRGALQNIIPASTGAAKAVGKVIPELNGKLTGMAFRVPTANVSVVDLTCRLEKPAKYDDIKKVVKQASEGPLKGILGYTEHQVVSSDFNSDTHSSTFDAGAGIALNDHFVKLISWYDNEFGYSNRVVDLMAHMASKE

GGUGCAAUGCAACUGAUGAGUCCGUGAGGACGAAACAGGAGUUGCGAAUU (ssRNA) [IL-2-Rz2] gave an activity [1] of 15 fold.

B1: TNF-alpha-Rz (ssRNA)
RNA: GUAAGAUGAUCUCUGAUGAGUCCGUGAGGACGAAACUGCCUGGUACUGAAUU
B1 showed an activity [2] of 3.8 fold.

B2: IL-2-Rz3 (ssRNA)
RNA: GACUUAGUGCAAUGCAACUGAUGAGUCCGUGAGGACGAAACAGGAGUUGCGAAUU
For B2, the activity [3] was ~15 fold.
